Laboratory results published in publication PMC6321292, “Comparative Transcriptomics Analysis for Gene Mining and Identification of a Cinnamyl Alcohol Dehydrogenase Involved in Methyleugenol Biosynthesis from Asarum sieboldii Miq” (Molecules, 2018).

Experiments:
Assay in all cases: purified protein
Format in all cases: biochemical, Asarum sieboldii
Details in all cases: 0.5 mM NADPH, 50 mM Tris-HCl pH 7.5, 2 mM DTT, 30 °C
[1] = substrate: O=C/C=C/c1ccc(O)cc1
[2] = substrate: COc1cc(/C=C/C=O)cc(OC)c1O
[3] = substrate: COc1cc(/C=C/C=O)ccc1O

B1: AsCAD5 (Asarum sieboldii) (protein)
chain: MSNQSGTDNCLGWAARDPSGILSPHSFSRRSIGSDDVSLKITHCGVCYADVAWTRNKVGDSMYPLVPGHEIVGIVQEVGSDVNRFKIGDHVGVGTYVNSCRECVYCKDKLEVVCQKGPTLTFNSLDVDGTITKGGYSSHIVVNERYCYRIPDGYPLVSAAPLLCAGITVYAPMMRHKMNQPGKSLGVIGLGGLGHMAVKFGKAFGLNVTVFSTSESKKEEALKLLGADRFVISSDKKQMEGVMKSLDFIIDTASGDHPFDPYMALLKTTGILVLVGFPSEVKFNPGSLILGLRTLSGSVTGGTKDTQEMLEFCAANKIYPEIELINIEYINEALERLINREVKYRFVIDIENSLK
notes: full ORF 1068 bp (about 355 residues), pMAL-C5X MBP fusion in E. coli Rosetta (DE3), MBP tag removed by Factor Xa, ca. 40 kDa
How did the Km [1] turn out when B1 was run?
Its Km is 45.52 ± 8.888 µM.

And the Vmax [1]?
Its Vmax is 23 µmol/min/mg.

What about the kcat [1] of the same protein?
The kcat was 249 s⁻¹.

What about the kcat/Km [1] of the same protein?
Its kcat/Km is 5.47e+06 M⁻¹ s⁻¹.

And the Km [2]?
Its Km is 35.02 ± 8.043 µM.

And the Vmax [2]?
The Vmax was 26.9 µmol/min/mg.

And the kcat [2]?
Its kcat is 291 s⁻¹.

What about the kcat/Km [2] of the same protein?
The kcat/Km was 8.3e+06 M⁻¹ s⁻¹.

And the Km [3]?
The Km was 27.32 ± 6.186 µM.

And the Vmax [3]?
The Vmax was 20.5 µmol/min/mg.

And the kcat [3]?
Its kcat is 222 s⁻¹.

What about the kcat/Km [3] of the same protein?
The kcat/Km was 8.12e+06 M⁻¹ s⁻¹.
